Non-standard residues stand in square brackets, D forms with d. Primed or numbered codes have the meaning given here. No end group written: not given here. *: point of attachment. DCHA″ = 3,5-dichloro-4-hydroxyaniline residue, Oc1c(Cl)cc(N*)cc1Cl; Phe(4-Cl) = N[C@@H](Cc1ccc(Cl)cc1)C(=O)O; Phe(4-I) = N[C@@H](Cc1ccc(I)cc1)C(=O)O; 2Nal = N[C@@H](Cc1ccc2ccccc2c1)C(=O)O; pNA = O=[N+]([O-])c1ccc(N*)cc1; NH(3-MeOPh) = COc1cccc(N*)c1; Nva = CCC[C@H](N)C(=O)O; Sar = CNCC(=O)O
Key:
human pepsin II = target: T1, human pepsin II (Homo sapiens, UniProt P20142); test: Digesting of the peptide substrate by human pepsin II (assay by HPLC); type: biochemical; conditions: for ration of digesting rate (pepsin II/ pepsin I): calculated from the HPLC digesting rates, pepsin II over pepsin I; for pepsin II digesting rate: peptide 0.5 mM, tartaric acid or glycine buffer pH2.0, 37° C., released amino acid derivative (II-A) by HPLC
T1 sequence (P20142 60-388): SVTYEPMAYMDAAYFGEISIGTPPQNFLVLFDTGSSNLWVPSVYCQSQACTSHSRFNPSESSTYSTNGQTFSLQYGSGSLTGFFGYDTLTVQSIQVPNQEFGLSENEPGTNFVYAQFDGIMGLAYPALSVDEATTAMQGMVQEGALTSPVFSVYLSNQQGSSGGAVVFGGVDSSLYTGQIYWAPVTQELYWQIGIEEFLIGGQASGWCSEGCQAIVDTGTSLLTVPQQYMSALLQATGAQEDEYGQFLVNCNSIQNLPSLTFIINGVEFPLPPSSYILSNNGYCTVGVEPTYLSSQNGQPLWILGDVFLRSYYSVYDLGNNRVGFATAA
Procedure: (§1) Tartaric acid buffer or glycine buffer (pH2.0) containing each peptide (0.5 mM) prepared in Examples 1 and 2(3) etc. (Examples in Table 3 described hereinafter).
(§2) An aqueous solution of human pepsin I or human pepsin II (0.01 mg/ml)
(§3) Enzyme solution I (0.1 ml) was added to Reagent (1.0 ml). After incubation of the mixture at 37° C. for 10, 30, 60 minutes, the mixture solution (0.3 ml) was collected. To the collected solution, 2N-NaOH (0.025 ml) was added to terminate the reaction. After addition of 2N-HCl (0.025 ml) to the mixture, protein was removed by the ultrafiltration. The assaying the amino acid derivatives of the formula (II-A) [drawing 19]
(§4) which was released after digesting by human pepsin in the obtained solution was carried out by HPLC using C18 column. The ratio of digesting rate of pepsin II/pepsin I was calculated according to the result from assay by HPLC. Such assay is carried out to confirm that a substrate was digested by pepsin I or pepsin II correctly and that the amino acid derivatives of the formula (II-A) were released.

human pepsin I = human pepsin I (Homo sapiens, UniProt P0DJD7); test: Digesting of the peptide substrate by human pepsin I (assay by HPLC); type: biochemical; conditions: peptide 0.5 mM, tartaric acid or glycine buffer pH2.0, 37° C., released amino acid derivative (II-A) by HPLC
human pepsin I, sequence (P0DJD7 63-388): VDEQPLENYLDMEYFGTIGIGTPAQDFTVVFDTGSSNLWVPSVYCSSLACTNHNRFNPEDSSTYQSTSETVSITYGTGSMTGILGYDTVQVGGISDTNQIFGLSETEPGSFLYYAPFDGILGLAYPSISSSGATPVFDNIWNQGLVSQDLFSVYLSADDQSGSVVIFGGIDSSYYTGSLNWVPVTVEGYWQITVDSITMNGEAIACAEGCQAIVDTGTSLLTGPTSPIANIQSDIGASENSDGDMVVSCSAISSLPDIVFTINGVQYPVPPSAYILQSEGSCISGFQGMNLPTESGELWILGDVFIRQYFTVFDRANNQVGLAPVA
Procedure: as §1, §2, §3, §4

Substance | ration of digesting rate (pepsin II/ pepsin I) (human pepsin II) | pepsin II digesting rate (human pepsin II) [μM/min · 1 μg Enz] | pepsin I digesting rate (human pepsin I) [μM/min · 1 μg Enz]
2(14): Q=Ac Lys Pro Gln Gln Ala; 4-I-Phenyl; R4=Me; (EE)m single bond; Z=p-NA (Ac-KPQQA[Phe(4-I)]A-pNA; also: TFA salt) | 410.2 | 3.85 | 0.0094
2(11): Q=Pro Gln Gln Ala; 2-Naphthyl; R4=n-Pr; (EE)m single bond; Z=p-NA (PQQA[2Nal][Nva]-pNA; also: TFA salt) | 174.9 | 4.10 | 0.0235
2(24): Q=Pro Gln Gln Gly; 2-Naphthyl; R4=Me; (EE)m single bond; Z=p-NA (PQQG[2Nal]A-pNA; also: TFA salt) | 2081.6 | 12.06 | 0.0058
2(51): Q=Gly Leu Ser Glu; 2-Naphthyl; R4=Me; (EE)m single bond; Z=p-NA (GLSE[2Nal]A-pNA; also: TFMSA salt) | 333.8 | 54.43 | 0.1631
2(56): Q=Ser Leu Ser Glu; 2-Naphthyl; R4=Me; (EE)m single bond; Z=p-NA (SLSE[2Nal]A-pNA; also: TFMSA salt) | 562.6 | 10.94 | 0.0194
2(7): Q=Pro Gln Gln Ala; 4-Cl-Phenyl; R4=Me; (EE)m single bond; Z=p-NA (PQQA[Phe(4-Cl)]A-pNA; also: TFA salt) | 104.4 | 3.50 | 0.0335
2(63): Q=Pro Asn Asn Leu Ser Glu; 2-Naphthyl; R4=Me; (EE)m single bond; Z=p-NA (PNNLSE[2Nal]A-pNA; also: TFMSA salt) | 169.2 | 29.84 | 0.1763
2(61): Q=Ac Lys Asn Leu Ser Glu; 2-Naphthyl; R4=Me; (EE)m single bond; Z=p-NA (Ac-KNLSE[2Nal]A-pNA; also: TFMSA salt) | 219.0 | 36.81 | 0.1681
ProLeuSerGluAla(2-Naph)Ala-pNA (PLSE[2Nal]A-pNA) [Example 1] | 198.2 | 55.40 | 0.2795
Nα-Me-GlySerGlyAla(2-Naph)AlaAla-DCHA.TFMSA ([Sar]SG[2Nal]AA-{DCHA″}; also: TFMSA salt) [Example 2(84)] | 119.5 | 33.07 | 0.2767
2(45): Q=Pro Thr Ser Glu; 2-Naphthyl; R4=Me; (EE)m single bond; Z=p-NA (PTSE[2Nal]A-pNA; also: TFMSA salt) | 161.4 | 40.55 | 0.2512
2(33): Q=Pro Gln Glu Glu; 2-Naphthyl; R4=Me; (EE)m single bond; Z=p-NA (PQEE[2Nal]A-pNA; also: TFMSA salt) | 402.3 | 25.41 | 0.0632
Nα-Me-GlyLeuSerGluAla(2-Naph)Ala-pNA.TFMSA ([Sar]LSE[2Nal]A-pNA; also: TFMSA salt) [Example 2(70)] | 158.4 | 49.56 | 0.3128
2(80): Q=Leu Ser Glu; 2-Naphthyl; R4=Me; (EE)m=Gly; Z=p-NA (LSE[2Nal]AG-pNA; also: TFMSA salt) | 105.48 | 15.77 | 0.1500
2(83): Q=Sar Leu Ser Glu; 2-Naphthyl; R4=Me; (EE)m=Ala; Z=m-ASD ([Sar]LSE[2Nal]AA-{NH(3-MeOPh)}; also: TFMSA salt) | 29.87 | 70.66 | 2.3660
2(16): Q=Asn Pro Gln Gln Ala; 4-I-Phenyl; R4=Me; (EE)m single bond; Z=p-NA (NPQQA[Phe(4-I)]A-pNA; also: TFA salt) | 1094.8 | 8.95 | 0.0082
2(54): Q=Lys Leu Ser Glu; 2-Naphthyl; R4=Me; (EE)m single bond; Z=p-NA (KLSE[2Nal]A-pNA; also: TFMSA salt) | 176.7 | 48.39 | 0.2739
2(23): Q=Pro Gln Gln Gln; 2-Naphthyl; R4=Me; (EE)m single bond; Z=p-NA (PQQQ[2Nal]A-pNA; also: TFA salt) | 308.8 | 5.90 | 0.0191
2(34): Q=Pro Gln Asp Glu; 2-Naphthyl; R4=Me; (EE)m single bond; Z=p-NA (PQDE[2Nal]A-pNA; also: TFMSA salt) | 711.9 | 15.40 | 0.0216
2(53): Q=Gln Leu Ser Glu; 2-Naphthyl; R4=Me; (EE)m single bond; Z=p-NA (QLSE[2Nal]A-pNA; also: TFMSA salt) | 621.0 | 61.96 | 0.0998
2(36): Q=Pro Asn Ser Glu; 2-Naphthyl; R4=Me; (EE)m single bond; Z=p-NA (PNSE[2Nal]A-pNA; also: TFMSA salt) | 193.5 | 21.22 | 0.1096
2(3): Q=Pro Gln Gln Ala; 4-I-Phenyl; R4=H; (EE)m single bond; Z=p-NA (PQQA[Phe(4-I)]G-pNA; also: TFA salt) | 2065.1 | 4.23 | 0.0020
2(78): Q=Leu Ser Glu; 2-Naphthyl; R4=Me; (EE)m=Leu; Z=p-NA (LSE[2Nal]AL-pNA; also: TFMSA salt) | 20.74 | 54.41 | 2.6240
2(22): Q=Pro Gln Gln Asn; 2-Naphthyl; R4=Me; (EE)m single bond; Z=p-NA (PQQN[2Nal]A-pNA; not fully specified) | 222.6 | 12.87 | 0.0578
2(57): Q=Thr Leu Ser Glu; 2-Naphthyl; R4=Me; (EE)m single bond; Z=p-NA (TLSE[2Nal]A-pNA; also: TFMSA salt) | 660.9 | 18.78 | 0.0284
